Measurements reported in publication PMC9482650, “Quantitative fragmentomics allow affinity mapping of interactomes” (Nature Communications, 2022).

Columns and labels:
Assay in all cases: holdup assay
Parameters in all cases: key: below the threshold = too weak to quantify, mostly under pKd 3.1 to 4
[1] = target: T1, DFNB31_3, Q9P202
T1 sequence (Q9P202 811-907, limits assumed, looked up): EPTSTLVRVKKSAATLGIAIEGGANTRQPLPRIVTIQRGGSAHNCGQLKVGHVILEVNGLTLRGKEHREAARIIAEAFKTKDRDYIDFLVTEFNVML

[2] = target: MAST1, Q9Y2H9
[3] = target: T2, DFNB31_2, Q9P202
T2 sequence (Q9P202 274-371, limits assumed, looked up): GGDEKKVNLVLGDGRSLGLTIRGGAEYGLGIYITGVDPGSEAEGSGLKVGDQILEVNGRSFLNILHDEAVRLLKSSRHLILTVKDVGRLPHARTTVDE

[4] = target: DLG1_1, Q12959
[5] = target: DLG2_3, Q15700
[6] = target: NHERF2_2, Q15599
[7] = target: MAGI2_2, Q86UL8
[8] = target: T3, NHERF3_1, Q5T2W1
T3 sequence (Q5T2W1 4-100, limits assumed, looked up): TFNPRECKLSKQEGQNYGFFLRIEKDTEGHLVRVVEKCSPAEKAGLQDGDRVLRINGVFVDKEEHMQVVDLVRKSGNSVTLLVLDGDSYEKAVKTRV

[9] = target: T4, MPDZ_5, O75970
T4 sequence (O75970 695-796, limits assumed, looked up): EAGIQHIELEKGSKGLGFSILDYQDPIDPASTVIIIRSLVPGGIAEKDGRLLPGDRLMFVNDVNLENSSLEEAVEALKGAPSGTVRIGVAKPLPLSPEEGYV

[10] = target: GRASP, Q7Z6J2
[11] = target: GRIP2_5, Q9C0E4
[12] = target: T5, SNTA1, Q13424
T5 sequence (Q13424 82-180, limits assumed, looked up): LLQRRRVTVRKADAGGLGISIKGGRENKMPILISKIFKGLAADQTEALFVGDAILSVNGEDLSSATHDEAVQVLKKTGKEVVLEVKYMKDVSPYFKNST

[13] = target: GRIP2_6, Q9C0E4
[14] = target: T6, PDZD2_2, O15018
T6 sequence (O15018 329-429, limits assumed, looked up): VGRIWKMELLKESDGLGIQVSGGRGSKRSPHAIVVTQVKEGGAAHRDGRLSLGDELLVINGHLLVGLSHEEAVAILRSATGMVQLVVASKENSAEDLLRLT

[15] = target: IL16_3, Q14005
[16] = target: T7, SIPA1L2, Q9P2F8
T7 sequence (Q9P2F8 945-1036, limits assumed, looked up): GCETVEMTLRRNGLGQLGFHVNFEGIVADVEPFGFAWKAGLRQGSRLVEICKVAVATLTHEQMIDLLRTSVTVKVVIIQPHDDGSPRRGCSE

[17] = target: DLG1_2, Q12959
[18] = target: T8, NHERF3_4, Q5T2W1
T8 sequence (Q5T2W1 373-468, limits assumed, looked up): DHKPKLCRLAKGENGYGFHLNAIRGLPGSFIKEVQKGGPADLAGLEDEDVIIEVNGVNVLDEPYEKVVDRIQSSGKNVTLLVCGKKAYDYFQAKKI

[19] = target: FRMPD2_2, Q68DX3
[20] = target: GIPC2, Q8TF65
[21] = target: FRMPD2_3, Q68DX3
[22] = target: T9, CARD11, Q9BXL7
T9 sequence (Q9BXL7 662-765, limits assumed, looked up): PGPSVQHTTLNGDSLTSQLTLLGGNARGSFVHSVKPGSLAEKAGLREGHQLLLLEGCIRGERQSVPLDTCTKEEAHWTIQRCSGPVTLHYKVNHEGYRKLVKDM

[23] = target: T10, LIN7A, O14910
T10 sequence (O14910 103-200, limits assumed, looked up): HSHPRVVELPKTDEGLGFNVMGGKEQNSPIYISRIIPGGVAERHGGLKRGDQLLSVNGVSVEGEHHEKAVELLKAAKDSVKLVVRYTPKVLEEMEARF

[24] = target: T11, PCLO, Q9Y6V0
T11 sequence (Q9Y6V0 4491-4600, limits assumed, looked up): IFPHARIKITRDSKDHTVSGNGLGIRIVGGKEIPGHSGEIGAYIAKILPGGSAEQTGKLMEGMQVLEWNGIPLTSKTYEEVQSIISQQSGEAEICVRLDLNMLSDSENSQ

[25] = target: T12, MPP6, Q9NZW5
T12 sequence (Q9NZW5 125-219, limits assumed, looked up): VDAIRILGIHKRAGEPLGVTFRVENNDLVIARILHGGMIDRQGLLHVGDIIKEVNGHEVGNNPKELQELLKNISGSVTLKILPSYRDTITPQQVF

[26] = target: GRID2IP_2, A4D2P6
[27] = plain residues with an end cap or a label only (N-terminal biotin on a linker: (peg)3)
[28] = plain residues with an end cap or a label only (N-terminal biotin on a linker: ado-ado)

Measured: pKd

GRID2IP_2, A4D2P6, sequence (A4D2P6 272-370): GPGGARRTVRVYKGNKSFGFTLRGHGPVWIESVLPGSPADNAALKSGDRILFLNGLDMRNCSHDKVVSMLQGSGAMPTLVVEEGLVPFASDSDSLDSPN
FRMPD2_2, Q68DX3, sequence (Q68DX3 944-1038): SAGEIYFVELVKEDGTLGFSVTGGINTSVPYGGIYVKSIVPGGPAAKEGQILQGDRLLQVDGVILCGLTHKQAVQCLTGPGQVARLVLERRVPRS
MAGI2_2, Q86UL8, sequence (Q86UL8 410-522): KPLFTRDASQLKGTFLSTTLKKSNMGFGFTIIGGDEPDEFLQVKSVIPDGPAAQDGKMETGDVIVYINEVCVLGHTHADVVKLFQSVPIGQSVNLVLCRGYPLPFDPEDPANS
NHERF2_2, Q15599, sequence (Q15599 142-238): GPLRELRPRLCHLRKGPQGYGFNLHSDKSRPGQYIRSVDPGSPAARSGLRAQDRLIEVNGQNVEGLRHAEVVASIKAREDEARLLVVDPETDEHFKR
GIPC2, Q8TF65, sequence (Q8TF65 112-203): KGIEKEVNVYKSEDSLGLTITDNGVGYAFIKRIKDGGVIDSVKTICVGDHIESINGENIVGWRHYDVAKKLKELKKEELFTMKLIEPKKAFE
IL16_3, Q14005, sequence (Q14005 1107-1207): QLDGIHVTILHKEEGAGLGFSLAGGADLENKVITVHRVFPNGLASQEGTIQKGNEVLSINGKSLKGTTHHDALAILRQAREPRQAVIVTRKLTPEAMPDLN
GRASP, Q7Z6J2, sequence (Q7Z6J2 96-193): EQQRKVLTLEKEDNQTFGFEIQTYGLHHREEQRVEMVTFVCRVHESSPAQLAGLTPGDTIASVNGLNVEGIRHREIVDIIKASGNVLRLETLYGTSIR
GRIP2_5, Q9C0E4, sequence (Q9C0E4 544-642): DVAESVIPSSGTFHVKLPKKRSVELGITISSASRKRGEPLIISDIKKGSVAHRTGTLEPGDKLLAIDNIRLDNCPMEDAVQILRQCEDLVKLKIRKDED
GRIP2_6, Q9C0E4, sequence (Q9C0E4 648-740): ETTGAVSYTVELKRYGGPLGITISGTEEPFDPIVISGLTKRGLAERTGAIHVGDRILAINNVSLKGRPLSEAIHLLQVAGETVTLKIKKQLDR
FRMPD2_3, Q68DX3, sequence (Q68DX3 1073-1166): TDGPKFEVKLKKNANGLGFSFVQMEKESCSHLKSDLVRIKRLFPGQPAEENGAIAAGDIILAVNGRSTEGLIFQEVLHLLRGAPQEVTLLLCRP
MAST1, Q9Y2H9, sequence (Q9Y2H9 962-1065): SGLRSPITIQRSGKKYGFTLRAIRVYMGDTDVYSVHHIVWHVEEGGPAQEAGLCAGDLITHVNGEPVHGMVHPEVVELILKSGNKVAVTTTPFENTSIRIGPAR

NLNSSEGVPDLLV [SARS-CoV-E, P59637]
below the threshold: [1]; [27] | [3]; [27] | [4]; [27] | [5]; [27] | [6]; [27] | [7]; [27] | [8]; [27] | [9]; [27] | [10]; [27] | [11]; [27] | [12]; [27] | [13]; [27] | [14]; [27] | [15]; [27] | [16]; [27] | [17]; [27] | [18]; [27] | [19]; [27] | [20]; [27] | [21]; [27] | [22]; [27] | [23]; [27] | [24]; [27] | [25]; [27] | [26]; [27]
3.79: [2]; [27]

YLEPVLSSEL [ATP2A2, P16615;P16615-3]
4.41: [14]; [28]
below the threshold: [3]; [28] | [4]; [28] | [7]; [28] | [9]; [28] | [11]; [28] | [12]; [28] | [13]; [28] | [15]; [28] | [16]; [28] | [17]; [28] | [19]; [28] | [20]; [28] | [21]; [28] | [22]; [28] | [23]; [28] | [24]; [28] | [25]; [28]
4.83: [2]; [28]
5.47: [8]; [28]
4.82: [10]; [28]
4.03: [1]; [28]
4.22: [26]; [28]
4.8: [18]; [28]
4.46: [6]; [28]

KSGKQTMLVV [TRIM29, Q14134;Q14134-2]
below the threshold: [1]; [28] | [2]; [28] | [3]; [28] | [4]; [28] | [5]; [28] | [6]; [28] | [8]; [28] | [9]; [28] | [10]; [28] | [14]; [28] | [15]; [28] | [16]; [28] | [18]; [28] | [19]; [28] | [20]; [28] | [21]; [28] | [22]; [28] | [23]; [28] | [24]; [28] | [25]; [28] | [26]; [28]

LPAHHNATRL [SLC34A1, Q06495;Q06495-1]
4.84: [2]; [28]
4.13: [26]; [28]
4.09: [18]; [28]
below the threshold: [1]; [28] | [3]; [28] | [4]; [28] | [5]; [28] | [9]; [28] | [11]; [28] | [13]; [28] | [14]; [28] | [15]; [28] | [16]; [28] | [17]; [28] | [19]; [28] | [20]; [28] | [21]; [28] | [22]; [28] | [23]; [28] | [24]; [28] | [25]; [28]
4.26: [10]; [28]
5.24: [8]; [28]
4.83: [6]; [28]

QKNRKAQEDL [CES3, Q6UWW8]
3.5: [22]; [28]
below the threshold: [2]; [28] | [3]; [28] | [4]; [28] | [6]; [28] | [7]; [28] | [8]; [28] | [9]; [28] | [10]; [28] | [11]; [28] | [12]; [28] | [13]; [28] | [14]; [28] | [15]; [28] | [16]; [28] | [17]; [28] | [18]; [28] | [19]; [28] | [20]; [28] | [21]; [28] | [23]; [28] | [24]; [28] | [25]; [28] | [26]; [28]
3.65: [5]; [28]
4.05: [1]; [28]
